This is an account of results in patent publication US9081017.

This assay concerns the target TNFR2 (human, endogenous in kidney tissue and cultured EC) (human) (UniProt P20333). The assay is described as follows: cell-based or functional assay.

Chain of TNFR2 (human, endogenous in kidney tissue and cultured EC) (human) (P20333 23-461): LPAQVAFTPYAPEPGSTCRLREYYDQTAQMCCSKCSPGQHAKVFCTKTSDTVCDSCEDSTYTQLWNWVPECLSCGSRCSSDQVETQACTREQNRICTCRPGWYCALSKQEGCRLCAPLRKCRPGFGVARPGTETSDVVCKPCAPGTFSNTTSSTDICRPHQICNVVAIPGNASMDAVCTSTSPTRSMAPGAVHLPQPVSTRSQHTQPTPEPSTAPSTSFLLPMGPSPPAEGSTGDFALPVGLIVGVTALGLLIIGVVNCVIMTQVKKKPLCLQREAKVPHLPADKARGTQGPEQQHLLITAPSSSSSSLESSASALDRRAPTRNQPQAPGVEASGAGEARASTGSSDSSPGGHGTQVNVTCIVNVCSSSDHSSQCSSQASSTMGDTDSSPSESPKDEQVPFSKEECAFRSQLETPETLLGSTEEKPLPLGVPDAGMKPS

“R2-TNF (TNF mutein D143N, A145R) (from UniProt P01375 77-233) (ligand)” registered a Proliferative index (PI), percentage of PCNA-positive tubular cell nuclei, human kidney organ culture of 50%.
